Numbering of substitutions follows the chain as printed. Names and notes keep the numbering of the source. Some results are limits rather than exact numbers.

Experimental findings from US20180162947A1 (UCB, published 2018) are described below.

Assay [1] deals with T1, recombinant human CSF-1R (form not stated) (human, UniProt P07333 20-512, limits assumed).
T1 construct: for the ELISA no species is stated; also called recombinant CSF-1R; recombinant CSF-1R protein
Kind of assay: BIAcore, experiment 1 of 3. Here is the method:
(§1) The assay format was capture of the anti-CSF-1R antibodies by immobilised anti-human IgG,F(ab′)₂, then a titration of hCSF-1R/Fc over the captured surface. BIA (Biomolecular Interaction Analysis) was performed using a BIAcore 3000 (GE Healthcare Bio-Sciences AB). All experiments were performed at 25° C. An AffiniPure F(ab′)₂ fragment goat anti-human IgG, F(ab′)₂ fragment specific (Jackson ImmunoResearch), was immobilised on a CM5 Sensor Chip (GE Healthcare Bio-Sciences AB) via amine coupling chemistry to a level of ˜5000 response units (RU). HBS-EP buffer (10 mM HEPES, pH 7.4, 0.15M NaCl, 3 mM EDTA, 0.005% Surfactant P20, GE Healthcare Bio-Sciences AB) was used as the running buffer with a flow rate of 10 μl/min.
(In general: Surface plasmon resonance follows binding to a sensor surface in real time, without labels.)

Assay [2] addresses T1, recombinant human CSF-1R (form not …). Kind of assay: BIAcore, experiment 2 of 3. Here is the method: as §1
For assay [3] the target is unchanged. Kind of assay: BIAcore, experiment 3 of 3. Here is the method:
as §1

Assay [4] shares this target. Kind of assay: BIAcore, mean of 3 (fourth row, unlabelled). Here is the method: as §1
Assay [5] shares this target. Kind of assay: BIAcore, humanisation stage, crude cell supernatant.
Assay [6] has as its target human CSF-1R on cells (THP-1 cells, transfected HEK293F cells, primary human monocytes) (human, UniProt P07333 20-972). Kind of assay: cell-based or functional assay.
Assay [7] deals with T1, recombinant human CSF-1R (form not …). Kind of assay: BIAcore, DG/SG comparison, crude cell supernatant.

human CSF-1R on cells (THP-1 cells, transfected HEK293F cells, primary human monocytes), sequence (P07333 20-972): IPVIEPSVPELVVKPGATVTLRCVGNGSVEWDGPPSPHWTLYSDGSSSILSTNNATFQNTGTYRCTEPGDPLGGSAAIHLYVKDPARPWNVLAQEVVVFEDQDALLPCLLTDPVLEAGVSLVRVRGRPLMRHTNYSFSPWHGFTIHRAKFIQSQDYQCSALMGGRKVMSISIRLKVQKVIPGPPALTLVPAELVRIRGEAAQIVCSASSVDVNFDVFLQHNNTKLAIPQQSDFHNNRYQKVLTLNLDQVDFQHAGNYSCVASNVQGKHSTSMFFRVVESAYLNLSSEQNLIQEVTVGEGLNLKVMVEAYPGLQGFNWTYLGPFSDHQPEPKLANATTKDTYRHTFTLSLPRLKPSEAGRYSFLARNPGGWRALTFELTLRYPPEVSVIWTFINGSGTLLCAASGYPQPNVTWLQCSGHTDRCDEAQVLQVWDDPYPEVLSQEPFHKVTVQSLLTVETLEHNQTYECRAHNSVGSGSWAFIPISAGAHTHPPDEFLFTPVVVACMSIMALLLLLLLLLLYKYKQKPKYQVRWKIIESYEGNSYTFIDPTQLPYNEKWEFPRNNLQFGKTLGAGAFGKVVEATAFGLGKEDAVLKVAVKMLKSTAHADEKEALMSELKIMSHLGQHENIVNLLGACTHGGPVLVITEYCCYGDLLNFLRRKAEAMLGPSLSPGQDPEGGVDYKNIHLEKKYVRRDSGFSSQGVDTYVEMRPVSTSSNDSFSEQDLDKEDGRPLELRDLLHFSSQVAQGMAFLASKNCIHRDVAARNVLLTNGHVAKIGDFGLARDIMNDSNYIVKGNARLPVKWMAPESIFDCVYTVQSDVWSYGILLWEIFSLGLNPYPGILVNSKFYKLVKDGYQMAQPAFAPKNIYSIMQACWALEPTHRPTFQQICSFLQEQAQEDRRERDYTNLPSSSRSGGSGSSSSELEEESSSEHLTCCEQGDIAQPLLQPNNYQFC
T1 sequence (P07333 20-512 limits assumed): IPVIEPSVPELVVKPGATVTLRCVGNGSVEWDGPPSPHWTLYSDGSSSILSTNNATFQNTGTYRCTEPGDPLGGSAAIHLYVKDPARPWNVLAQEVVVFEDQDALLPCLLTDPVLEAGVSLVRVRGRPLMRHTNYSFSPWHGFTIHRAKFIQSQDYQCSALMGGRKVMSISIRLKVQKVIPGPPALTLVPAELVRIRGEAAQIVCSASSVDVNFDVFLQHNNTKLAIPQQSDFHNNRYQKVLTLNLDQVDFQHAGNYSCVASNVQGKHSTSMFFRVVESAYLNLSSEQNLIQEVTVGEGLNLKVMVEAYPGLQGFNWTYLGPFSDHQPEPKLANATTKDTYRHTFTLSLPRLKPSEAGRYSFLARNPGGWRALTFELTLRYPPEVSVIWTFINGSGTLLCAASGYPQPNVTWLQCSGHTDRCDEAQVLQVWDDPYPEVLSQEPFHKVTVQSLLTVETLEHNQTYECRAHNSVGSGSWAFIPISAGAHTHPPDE

B1: 969gH1gL1 (antibody, human IgG4 S228P, kappa, name in Kabat numbering, V domains shown)
VH: EVTLKESGPALVKPTQTLTLTCTFSGFSLTTYGMGVGWIRQPPGKALEWLANIWWDDDKYYNPSLKNRLTISKDTSKNQAVLTMTNMDPVDTATYYCARIGPIKYPTAPYRYFDFWGQGTMVTVSS
VL: DIQMTQSPSSLSASVGDRVTITCLASEDIYDNLAWYQKKPGKAPKLLIYYASSLQDGVPSRFSGSGSGTDYTLTISSLQPEDFATYFCLQDSEYPWTFGGGTKVEIKR
notes: Humanised IgG4 (S241P)/kappa; positions are Kabat; also called Ab969.g1
The term Kd denotes the constant that tells how readily two partners part at equilibrium. Usually koff stands for the rate constant with which the complex falls apart. One may read the kon as a measure of how fast the partners come together. In the case of B1, the Kd is 3.2 pM in assay [1]; 2.4 pM in assay [2]; 3.9 pM in assay [3]; 3.2 pM in assay [4]; at most 2.4 pM in assay [5]. Besides, the koff was 8.47e-06 s⁻¹ in assay [1]; 6.04e-06 s⁻¹ in assay [2]; 9.88e-06 s⁻¹ in assay [3]; 8.13e-06 s⁻¹ in assay [4]; at most 5e-06 s⁻¹ in assay [5]. For the same molecule, the kon in assay [1] amounted to 2.65e+06 M⁻¹ s⁻¹; in assay [2] it was 2.57e+06 M⁻¹ s⁻¹; in assay [3] it was 2.51e+06 M⁻¹ s⁻¹; in assay [4], 2.58e+06 M⁻¹ s⁻¹; in assay [5] it was 2.04e+06 M⁻¹ s⁻¹.

B2: 969gH1gL3 (antibody, human IgG4 S228P, kappa, name in Kabat numbering, V domains shown)
VH: B1 VH
VL: B1 VL with Y71F
notes: Humanised IgG4 (S241P)/kappa; positions are Kabat
With B2, in assay [5], the Kd is 2.8 pM, the koff stood at 5e-06 s⁻¹ and the kon stood at 1.8e+06 M⁻¹ s⁻¹.

B3: 969gH2gL1 (antibody, human IgG4 S228P, kappa, name in Kabat numbering, V domains shown)
VH: B1 VH with A80V
VL: B1 VL
notes: Humanised IgG4 (S241P)/kappa; positions are Kabat; also called Ab969.g6
On to B3, for which the Kd stood at 3.6 pM in assay [1]; 3.7 pM in assay [2]; 2.6 pM in assay [3]; 3.3 pM in assay [4]; 2.3 pM in assay [5]. Further, the koff was determined as 8.84e-06 s⁻¹ in assay [1]; 8.95e-06 s⁻¹ in assay [2]; 6.63e-06 s⁻¹ in assay [3]; 8.14e-06 s⁻¹ in assay [4]; 5.23e-06 s⁻¹ in assay [5]. Besides, the kon in assay [1] was found to be 2.43e+06 M⁻¹ s⁻¹; in assay [2], 2.44e+06 M⁻¹ s⁻¹; in assay [3], 2.54e+06 M⁻¹ s⁻¹; in assay [4] it was 2.47e+06 M⁻¹ s⁻¹; in assay [5], 2.27e+06 M⁻¹ s⁻¹.

B4: 969gH1gL7 (antibody, human IgG4 S228P, kappa, name in Kabat numbering, V domains shown)
VH: B1 VH
VL: B1 VL with K38Q, F87Y
notes: Humanised IgG4 (S241P)/kappa; position is Kabat
In the case of B4, in assay [5], the dissociation constant Kd came out at 3.3 pM, the dissociation rate constant (koff) was 5e-06 s⁻¹ and the kon was found to be 1.5e+06 M⁻¹ s⁻¹.

B5: 969gH1gL4 (antibody, human IgG4 S228P, kappa, name in Kabat numbering, V domains shown)
VH: B1 VH
VL: B1 VL with F87Y
notes: as for B2
Consider B5, for which, in assay [5], the Kd was found to be 2.1 pM, the koff was 5e-06 s⁻¹ and the on-rate (kon) worked out at 2.39e+06 M⁻¹ s⁻¹.

B6: 969gH2gL3 (antibody, human IgG4 S228P, kappa, name in Kabat numbering, V domains shown)
VH: B1 VH with A80V
VL: B1 VL with Y71F
notes: as for B2
In the case of B6, in assay [5], the Kd was 3.4 pM, the koff amounted to 7.29e-06 s⁻¹ and the kon was determined as 2.12e+06 M⁻¹ s⁻¹.

B7: 969gH1gL2 (antibody, human IgG4 S228P, kappa, name in Kabat numbering, V domains shown)
VH: B1 VH
VL: B1 VL with K38Q
notes: as for B2
On to B7, for which, in assay [5], the dissociation constant Kd turned out to be 3.4 pM, the dissociation rate constant (koff) was determined as 5e-06 s⁻¹ and the kon amounted to 1.46e+06 M⁻¹ s⁻¹.

B8: 969gH2gL6 (antibody, human IgG4 S228P, kappa, name in Kabat numbering, V domains shown)
VH: B1 VH with A80V
VL: B1 VL with Y71F, F87Y
notes: Humanised IgG4 (S241P)/kappa; positions are Kabat; also called Ab969.g9
For B8, in assay [5], the Kd stood at 4.4 pM, the off-rate (koff) came out at 6.23e-06 s⁻¹ and the kon stood at 1.4e+06 M⁻¹ s⁻¹.

B9: 969gH1gL6 (antibody, human IgG4 S228P, kappa, name in Kabat numbering, V domains shown)
VH: B1 VH
VL: B1 VL with Y71F, F87Y
notes: as for B2
As to B9, in assay [5], the Kd came to 4.4 pM, the koff was 5e-06 s⁻¹ and the kon was found to be 1.15e+06 M⁻¹ s⁻¹.

B10: 969gH2gL5 (antibody, human IgG4 S228P, kappa, name in Kabat numbering, V domains shown)
VH: B1 VH with A80V
VL: B1 VL with K38Q, Y71F
notes: as for B2
In the case of B10, in assay [5], the Kd came out at 6.5 pM, the koff is 5e-06 s⁻¹ and the on-rate constant (kon) is 768000 M⁻¹ s⁻¹.

B11: 969gH2gL4 (antibody, human IgG4 S228P, kappa, name in Kabat numbering, V domains shown)
VH: B1 VH with A80V
VL: B1 VL with F87Y
notes: Humanised IgG4 (S241P)/kappa; positions are Kabat; also called Ab969.g7
As for B11, in assay [6], the “IC50, MCP-1 inhibition assay, Donor 1” value amounted to 0.0463 µg/mL; the “IC50, MCP-1 inhibition assay, Donor 2” value came out at 0.0061 µg/mL; the “IC50 ratio against chimeric 969.g0 (number in parentheses), Donor 1” value is 1.5 ratio; the “IC50 ratio against chimeric 969.g0 (number in parentheses), Donor 2” value is 1.1 ratio. Moreover, the “Mean chimeric/graft IC50 ratio” value in assay [6] was 1.3 ratio. Also, in assay [1], the Kd was 3 pM, the koff worked out at 7.73e-06 s⁻¹ and the kon was 2.57e+06 M⁻¹ s⁻¹. In addition, in assay [2], the Kd was 3.6 pM, the koff came to 9.41e-06 s⁻¹ and the kon is 2.6e+06 M⁻¹ s⁻¹. For the same molecule, in assay [3], the Kd stood at 4.6 pM, the koff came to 1.15e-05 s⁻¹ and the kon turned out to be 2.52e+06 M⁻¹ s⁻¹. Also, in assay [4], the Kd worked out at 3.7 pM, the koff was found to be 9.55e-06 s⁻¹ and the kon is 2.56e+06 M⁻¹ s⁻¹. Besides, in assay [5], the Kd came to 4.4 pM, the koff was found to be 9.64e-06 s⁻¹ and the on-rate constant (kon) came out at 2.2e+06 M⁻¹ s⁻¹.

B12: 969gH2gL7 SG (antibody, human IgG4 S228P, kappa, V domains shown)
VH: B1 VH with A80V
VL: B1 VL with K38Q, D56S, F87Y
notes: Humanised IgG4 (S241P)/kappa; also called 969H2gL7(SG)
As for B12, in assay [7], the dissociation constant Kd was found to be 2 pM, the koff is 5e-06 s⁻¹ and the kon came to 2.54e+06 M⁻¹ s⁻¹.

B13: 969gH2gL2 (antibody, human IgG4 S228P, kappa, name in Kabat numbering, V domains shown)
VH: B1 VH with A80V
VL: B1 VL with K38Q
notes: as for B2
As to B13, in assay [5], the Kd amounted to 3.4 pM, the koff was 6.11e-06 s⁻¹ and the kon stood at 1.78e+06 M⁻¹ s⁻¹.

B14: 969gH1gL5 (antibody, human IgG4 S228P, kappa, name in Kabat numbering, V domains shown)
VH: B1 VH
VL: B1 VL with K38Q, Y71F
notes: as for B2
Regarding B14, in assay [5], the Kd is 6.6 pM, the koff was 6.11e-06 s⁻¹ and the kon is 926000 M⁻¹ s⁻¹.

B15: 969gH1gL8 (antibody, human IgG4 S228P, kappa, name in Kabat numbering, V domains shown)
VH: B1 VH
VL: B1 VL with K38Q, Y71F, F87Y
notes: as for B2
For B15, in assay [5], the Kd came out at 4.3 pM, the koff came to 5e-06 s⁻¹ and the kon came to 1.17e+06 M⁻¹ s⁻¹.

B16: 969gH2gL8 (antibody, human IgG4 S228P, kappa, name in Kabat numbering, V domains shown)
VH: B1 VH with A80V
VL: B1 VL with K38Q, Y71F, F87Y
notes: Humanised IgG4 (S241P)/kappa, no donor residues; position is Kabat; also called Ab969.g4
With B16, the dissociation constant (Kd) amounted to 2.5 pM in assay [1]; 3.4 pM in assay [2]; 2.5 pM in assay [3]; 2.8 pM in assay [4]; 2.3 pM in assay [7]; 4.1 pM in assay [5]. In addition, the koff in assay [1] was 5e-06 s⁻¹; in assay [2], 6.65e-06 s⁻¹; in assay [3], 5e-06 s⁻¹; in assay [4], 5.55e-06 s⁻¹; in assay [7] it was 5e-06 s⁻¹; in assay [5], 5e-06 s⁻¹. Further, the kon in assay [1] is 1.99e+06 M⁻¹ s⁻¹; in assay [2], 1.94e+06 M⁻¹ s⁻¹; in assay [3], 1.97e+06 M⁻¹ s⁻¹; in assay [4] it was 1.97e+06 M⁻¹ s⁻¹; in assay [7] it was 2.18e+06 M⁻¹ s⁻¹; in assay [5] it was 1.23e+06 M⁻¹ s⁻¹.
